Data from patent publication US20120302734A1 (COMMONWEALTH SCIENTIFIC AND INDUSTRIAL RESEARCH ORGANISATION, published 2012).

Biological target: the molecule itself
Test: dynamic light scattering after SDS removal, against 9.2 nm for the monomeric SDS-protein solution; self-association
Experimental: The AmelF3 honeybee silk protein was expressed into the inclusion bodies of E. coli. AmelF3 inclusion bodies were unfolded using equivalent dry weight of the detergent sodium dodecyl sulphate (SDS) to generate 2-4% monomeric protein solutions. Dynamic light scattering (DLS) measured the hydrodynamic diameter of particles in the protein-detergent solution diluted ten-fold in 100 mM NaCl as 9.2+/−0.1 nm (peak containing 98.2% of particle volume). The diameter of SDS micelles in 3% SDS solutions without protein under the same experimental conditions was a single peak at 5.5+/−0.2 nm. No SDS micelles were detected in the SDS—protein solutions confirming that the majority of the SDS was bound to the protein.
Proteins were refolded by removing SDS using KCl. […] The protein solutions were dialysed against water to reduce salt levels then concentrated by dialysis against PEG8000, resulting in 3-4% protein and 0.2-0.4% SDS concentration.

B1: Honeybee silk protein Xenospira3 (AmelF3), recombinant, without signal peptide (other)
chain: GVEEFKSSATEEVISKNLEVDLLKNVDTSAKRRENGAPVLGKNTLQSLEKIKTSASVNAKAAAVVKASALALAEAYLRASALSAAASAKAAAALKNAQQAQLNAQEKSLAALKAQSEEEAASARANAATAATQSALERAQASSRLATVAQNVASDLQKRTSTKAAAEAAATLRQLQDAERTKWSANAALEVSAAAAAAETKTTASSEAANAAAKKAAAIASDADGAERSASTEAQSAAKIESVAAAEGSANSASEDSRAAQLEASTAARANVAAAVGDGAIIGLGEEAGAAAQLLAQAKALAEVSSKSENIEDKKF
notes: The cloning primer may add an N-terminal Met
B1: binds.
